The values that follow come from patent US20110054149A1 (published 2011).

Assay [1] deals with T1, GST-human NOGO-A56 (human, UniProt Q9NQC3 586-785).
T1 construct: also called hNOGO; recombinant human NOGO; not shown: Glutathione S-transferase (GST) tag encoded by vector pGEX-6P1, N-terminal to the NOGO-A fragment; the tag and linker se
T1 sequence: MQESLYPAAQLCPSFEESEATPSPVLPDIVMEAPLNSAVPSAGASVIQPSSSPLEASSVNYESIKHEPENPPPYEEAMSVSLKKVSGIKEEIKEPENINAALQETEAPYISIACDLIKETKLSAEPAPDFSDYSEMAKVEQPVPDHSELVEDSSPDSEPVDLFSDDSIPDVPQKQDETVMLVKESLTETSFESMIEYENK
The experiment in a line: SPR off-rate ranking (Biacore), CHO-K1 transfection supernatant over GST-human NOGO-A56 chip; mean (SD) of two experiments. On the procedure: (§1) hNOGO (GST-human NOGO-A56) was immobilised to a CM5 chip by primary amine coupling using the Biacore Wizard program designed for targeted immobilisation levels. The CM5 sensor surface was activated by passing a solution of 50 mM N-hydroxy-succinimide (NHS) and 200 mM N-ethyl-N′-dimethylaminopropyl […] (EDC). Then hNOGO in sodium acetate buffer, pH5.0 or pH 4.5, was passed over the chip and immobilised. After immobilisation was complete any still activated esters were blocked by an injection of 1M ethanolamine hydrochloride, pH8.5.
(§2) The hNOGO chip was prepared as for kinetic analysis. Cell supernatants where taken directly from transient transfections of CHO—K1 cells. These were passed directly over the sensor surface and the interaction measured. A mock transfected cell supernatant was used for double referencing to remove any artefacts due to the tissue culture media. All runs were referenced against a blanked sensor surface (one that had been activated and blocked as described earlier but had no addition of ligand). Analysis of binding was carried out using the BIAevaluation kinetic analysis software version 4.1.
On the technique in general: Surface plasmon resonance follows binding to a sensor surface in real time, without labels.

In assay [2] the target is T1, GST-human NOGO-A56. The assay is described as follows: SPR (Biacore 3000), GST-human NOGO-A56 amine-coupled to CM5 chip, antibody as analyte; mean (SD) of four experiments. The method, then: (§3) The binding kinetics of the anti-NOGO monoclonal antibody (mAb) to recombinantly expressed human NOGO-A (GST-human NOGO-A56) was analysed using the Biacore3000 biosensor. The hNOGO-A chip was prepared as follows:
as §1
(§4) The anti-NOGO mAbs were diluted down in HBS-EP (10 mM HEPES, pH 7.4, 150 mM NaCl, 3 mM EDTA, and 0.005% P-20 surfactant) and binding studies were carried out at range of defined antibody concentrations. All runs were referenced against a blanked sensor surface (one that had been activated and blocked as described earlier but had no addition of ligand). Analysis of binding was carried out using the BIAevaluation kinetic analysis software version 4.1. Biacore analysis of other antibodies of the invention essentially followed the same protocol as described herein.

Assay [3] has as its target T1, GST-human NOGO-A56. The assay is described as follows: SPR (Biacore 3000), GST-human NOGO-A56 on CM5 chip, antibody as analyte; single experiment. The method, then:
as §3, §1, §4

Assay [4] deals with T1, GST-human NOGO-A56. The assay is described as follows: SPR (Biacore 3000), GST-human NOGO-A56 on CM5 chip, antibody as analyte; mean (SD) of two experiments. On the procedure: as §3, §1, §4
Assay [5] deals with T1, GST-human NOGO-A56. The assay is described as follows: SPR (BiaCore kinetic analysis), told in the summary section.
Assay [6] has as its target T1, GST-human NOGO-A56. The experiment in a line: SPR off-rate ranking (Biacore), CHO-K1 transfection supernatant over GST-human NOGO-A56 chip; mean (SD) of three experiments. The method, then: as §1, §2
For assay [7], the target named is T1, GST-human NOGO-A56. The assay is described as follows: SPR (Biacore 3000), GST-human NOGO-A56 on CM5 chip, antibody as analyte; single experiment. The method, then:
as §3, §1, §4
This is another data set of the same source.

B1: HcLc (chimera of 2A10: murine 2A10 VH and VL with human IgG constant regions) (antibody, V domains shown)
VH: QVQLQQPGTELVKPGASVKLSCKASGYTFTSYWMHWVKQRPGQGLEWIGNINPSNGGTNYNEKFKSKATLTVDKSSSTAYMQLSSLTSEDSAVYYCELGQGYWGQGTLVTVSS
VL: DIVITQDELSNPVTSGESVSISCRSSKSLLYKDGKTYLNWFLQRPGQSPQLLIYLMSTRASGVSDRFSGSGSGTDFTLEISRVKAEDVGVYYCQQLVEYPLTFGAGTKLELKR
notes: also called 2A10 chimeric antibody; the chimera
Broadly, the koff is the first-order rate constant of dissociation. Broadly, the Kd is the concentration at which binding is half-saturated. A low value points to tighter binding. By kon is commonly meant a measure of how fast the partners come together. Read a low kon as slow association. B1: the koff was determined as 0.00376 s⁻¹ in assay [1], 0.00378 s⁻¹ in assay [2], 0.00412 s⁻¹ in assay [3] and 0.00346 s⁻¹ in assay [4]. Besides, the Kd in assay [2] was 1.41 nM; in assay [3], 1.6 nM; in assay [4], 0.995 nM. Besides, the values for the kon in assay [2], in assay [3] and in assay [4] were 2.7e+06 M⁻¹ s⁻¹, 2.62e+06 M⁻¹ s⁻¹ and 3.52e+06 M⁻¹ s⁻¹, respectively.

B2: murine monoclonal antibody 2A10 (antibody, V domains shown)
VH: QVQLQQPGTELVKPGASVKLSCKASGYTFTSYWMHWVKQRPGQGLEWIGNINPSNGGTNYNEKFKSKATLTVDKSSSTAYMQLSSLTSEDSAVYYCELGQGYWGQGTTLTVSS
VL: DIVITQDELSNPVTSGESVSISCRSSKSLLYKDGKTYLNWFLQRPGQSPQLLIYLMSTRASGVSDRFSGSGSGTDFTLEISRVKAEDVGVYYCQQLVEYPLTFGAGTKLELK
notes: Murine antibody; also called donor antibody
Turning to B2, in assay [5], the Kd was ~1 nM.

B3: H6Lc (antibody, human IgG1, kappa, V domains shown)
VH: QVQLVQSGAEVKKPGASVKVSCKASGYTFTSYWMHWVRQAPGQGLEWIGNINPSNGGTNYNEKFKSRATMTRDTSTSTAYMELSSLRSEDTAVYYCELGQGYWGQGTLVTVSS
VL: DIVITQDELSNPVTSGESVSISCRSSKSLLYKDGKTYLNWFLQRPGQSPQLLIYLMSTRASGVSDRFSGSGSGTDFTLEISRVKAEDVGVYYCQQLVEYPLTFGAGTKLELKR
notes: Humanised heavy chain H6 paired with chimeric light chain Lc; For the light chain start see the note on HcLc
In the case of B3, in assay [4], binding was characterised by a dissociation constant (Kd) of 2.21 nM, the koff turned out to be 0.00284 s⁻¹ and the kon came out at 2.17e+06 M⁻¹ s⁻¹.

B4: H1L11 (antibody, human IgG1, kappa, V domains shown)
VH: QVQLVQSGAEVKKPGASVKVSCKASGYTFTSYWMHWVRQAPGQGLEWMGNINPSNGGTNYNEKFKSRVTMTRDTSTSTVYMELSSLRSEDTAVYYCELGQGYWGQGTLVTVSS
VL: DIVITQSPLSLPVTLGQPASISCRSSKSLLYKDGKTYLNWFQQRPGQSPQLLIYLMSTRASGVPDRFSGGGSGTDFTLKISRVEAEDVGVYYCQQLVEYPLTFGQGTKLEIKR
notes: human gamma-1 mutated constant region, human kappa
For the molecule B4, the Kd in assay [2] stood at 18.6 nM. Moreover, the koff in assay [2] came to 0.0314 s⁻¹; in assay [6] it was 0.0403 s⁻¹; in assay [3] it was 0.0284 s⁻¹. Further, the values for the kon in assay [2] and in assay [3] were 1.73e+06 M⁻¹ s⁻¹ and 1.33e+06 M⁻¹ s⁻¹, respectively.

B5: H6L13 (antibody, human IgG1, kappa, V domains shown)
VH: QVQLVQSGAEVKKPGASVKVSCKASGYTFTSYWMHWVRQAPGQGLEWIGNINPSNGGTNYNEKFKSRATMTRDTSTSTAYMELSSLRSEDTAVYYCELGQGYWGQGTLVTVSS
VL: DIVMTQSPLSLPVTLGQPASISCRSSKSLLYKDGKTYLNWFQQRPGQSPQLLIYLMSTRASGVPDRFSGGGSGTDFTLKISRVEAEDVGVYYCQQLVEYPLTFGQGTKLEIKR
notes: Humanised 2A10; human gamma-1 mutated constant region, human kappa; also called H6L13 FL
For the molecule B5, the Kd in assay [2] amounted to 7.68 nM; in assay [3] it was 7.3 nM; in assay [7], 7.9 nM. Also, the koff in assay [2] is 0.0137 s⁻¹; in assay [6], 0.0173 s⁻¹; in assay [3], 0.013 s⁻¹; in assay [7], 0.0233 s⁻¹. The results for the kon in assay [2], in assay [3] and in assay [7] were 1.82e+06 M⁻¹ s⁻¹, 1.77e+06 M⁻¹ s⁻¹ and 2.95e+06 M⁻¹ s⁻¹, respectively.

B6: H16L18 (antibody, human IgG1, kappa, V domains shown)
VH: QVQLVQSGAEVKKPGASVKVSCKASGYTFTSYWMHWVKQRPGQGLEWIGNINPSNGGTNYNEKFKSKATLTVDKSTSTAYMELSSLRSEDTAVYYCELGQGYWGQGTLVTVSS
VL: DIVMTQDPLSNPVTLGQPVSISCRSSKSLLYKDGKTYLNWFLQRPGQSPQLLIYLMSTRASGVSDRFSGSGSGTDFTLKISRVEAEDVGVYYCQQLVEYPLTFGQGTKLEIKR
notes: Humanised 2A10; human gamma-1 mutated constant region, human kappa; also called H16L18 FL
In assay [2], B6 had a Kd of 1.33 nM, a koff of 0.00552 s⁻¹ and a kon of 4.18e+06 M⁻¹ s⁻¹. This molecule had a koff in assay [6] of 0.00609 s⁻¹.

B7: H16L16 (antibody, human IgG1, kappa)
heavy: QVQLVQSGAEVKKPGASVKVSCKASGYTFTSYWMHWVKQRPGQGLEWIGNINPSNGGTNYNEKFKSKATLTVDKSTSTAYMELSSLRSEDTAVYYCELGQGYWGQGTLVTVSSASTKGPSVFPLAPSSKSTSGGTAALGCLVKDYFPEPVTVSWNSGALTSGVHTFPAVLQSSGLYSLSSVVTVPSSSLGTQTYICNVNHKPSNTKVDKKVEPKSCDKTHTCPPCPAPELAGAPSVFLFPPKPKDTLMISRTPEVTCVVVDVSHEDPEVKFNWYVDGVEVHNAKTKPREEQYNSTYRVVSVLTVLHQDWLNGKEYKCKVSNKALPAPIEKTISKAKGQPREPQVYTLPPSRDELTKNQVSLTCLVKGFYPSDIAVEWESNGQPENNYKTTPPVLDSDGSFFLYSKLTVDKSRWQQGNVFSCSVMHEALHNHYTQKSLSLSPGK
light: DIVMTQSPLSNPVTLGQPVSISCRSSKSLLYKDGKTYLNWFLQRPGQSPQLLIYLMSTRASGVPDRFSGGGSGTDFTLKISRVEAEDVGVYYCQQLVEYPLTFGQGTKLEIKRTVAAPSVFIFPPSDEQLKSGTASVVCLLNNFYPREAKVQWKVDNALQSGNSQESVTEQDSKDSTYSLSSTLTLSKADYEKHKVYACEVTHQGLSSPVTKSFNRGEC
notes: Humanised 2A10; human gamma-1 mutated constant region, human kappa; also called H16L16 FL
As to B7, the Kd in assay [2] is 1.26 nM; in assay [3], 1 nM. Moreover, the koff in assay [2] is 0.00554 s⁻¹; in assay [6], 0.00664 s⁻¹; in assay [3] it was 0.00569 s⁻¹. In addition, the kon in assay [2] was determined as 4.37e+06 M⁻¹ s⁻¹; in assay [3], 5.47e+06 M⁻¹ s⁻¹.

B8: H18L16 (antibody, human IgG1, kappa, V domains shown)
VH: QVQLVQSGAEVVKPGASVKLSCKASGYTFTSYWMHWVKQRPGQGLEWIGNINPSNGGTNYNEKFKSKATLTVDKSSSTAYMELSSLRSEDSAVYYCELGQGYWGQGTLVTVSS
VL: DIVMTQSPLSNPVTLGQPVSISCRSSKSLLYKDGKTYLNWFLQRPGQSPQLLIYLMSTRASGVPDRFSGGGSGTDFTLKISRVEAEDVGVYYCQQLVEYPLTFGQGTKLEIKR
notes: Humanised 2A10; human gamma-1 mutated constant region, human kappa; also called H18L16 FL
The molecule B8 showed a koff in assay [1] of 0.00687 s⁻¹. In assay [2], this molecule showed a dissociation constant Kd of 1.62 nM, a koff of 0.00586 s⁻¹ and a kon of 3.64e+06 M⁻¹ s⁻¹.
